Reference: patent publication US10295551B2, “Development and use of fluorescent probes of unbound bilirubin” (Alan Marc Kleinfeld, priority 2011, dated 2019)
Substitutions are numbered along the chain they refer to. Where two headings read alike, the source gives them in different places.

B1: BL8P20 G3: SEQ 3 mutein: 18L, 38M, 60F, 73F, 106T, 115R, 117E (protein)
chain: AFDGTWKVDRNENYEKFLEKMGINVVKRKLGAHDNLKMTITQEGNKFTVKESSNFRNIDFVFELGVDFAYSAFDGTELTGTWTMEGNKLVGKFKRVDNGKELIAVTEISGNELIRTETYEGVEAKRIFKKDRGHHHHHH
modifications: acrylodan labeled; rat intestinal fatty acid binding protein with substitution of Xaa at one or more of 14, 18, 23, 25, 27, 31, 36, 38, 55, 60, 72, 73, 74, 78, 102, 104, 106, 115 and 117; rat intestinal fatty acid binding protein in which one amino acid residue may be substituted with cysteine or lysine; optional 6His tag at N terminus; Xaa=any amino acid
B2: L1P1 C 12: SEQ 3 mutein: 38I 72W 117W (protein)
chain: B1 chain with L18M, M38I, F60V, A72W, F73A, T106R, R115Q, E117W
modifications: acrylodan label; rat intestinal fatty acid binding protein with substitution of Xaa at one or more of 14, 18, 23, 25, 27, 31, 36, 38, 55, 60, 72, 73, 74, 78, 102, 104, 106, 115 and 117; rat intestinal fatty acid binding protein in which one amino acid residue may be substituted with cysteine or lysine; optional 6His tag at N terminus; Xaa=any amino acid
B3: BL22P1B11 - 25K: SEQ 3 mutein: MGI - KR14 - 14R 18L 25K 27A 38V 60R 73F 106L 115R 117D (protein)
chain: B1 chain with Y14R, V25K, K27A, M38V, F60R, T106L, E117D
modifications: BL22P1B11; Tyr->Arg; Met-> Leu; Val-> Cys; Lys-> Ala; Leu-> Val; Val-> Arg; Leu-> Ala; Ala-> Phe; Arg-> Leu; Gln-> Arg; Tyr -> Asp; 6His tag at N terminus
B4: BL8P21 E8: SEQ 3 mutein: 18L 38I 60H 73F 106D 115R 117E (protein)
chain: B1 chain with M38I, F60H, T106D
modifications: acrylodan labeled; rat intestinal fatty acid binding protein with substitution of Xaa at one or more of 14, 18, 23, 25, 27, 31, 36, 38, 55, 60, 72, 73, 74, 78, 102, 104, 106, 115 and 117; rat intestinal fatty acid binding protein in which one amino acid residue may be substituted with cysteine or lysine; optional 6His tag at N terminus; Xaa=any amino acid
B5: BL8P9 G9: SEQ 3 mutein: 18L, 38A, 73F, 106V, 115R, 117D (protein)
chain: B1 chain with M38A, F60V, T106V, E117D
modifications: acrylodan labeled; rat intestinal fatty acid binding protein with substitution of Xaa at one or more of 14, 18, 23, 25, 27, 31, 36, 38, 55, 60, 72, 73, 74, 78, 102, 104, 106, 115 and 117; rat intestinal fatty acid binding protein in which one amino acid residue may be substituted with cysteine or lysine; optional 6His tag at N terminus; Xaa=any amino acid
B6: L1P1 B4: SEQ 3 mutein: 14I 72W 117W (protein)
chain: B1 chain with Y14I, L18M, M38L, F60V, A72W, F73A, T106R, R115Q, E117W
modifications: acrylodan label; rat intestinal fatty acid binding protein with substitution of Xaa at one or more of 14, 18, 23, 25, 27, 31, 36, 38, 55, 60, 72, 73, 74, 78, 102, 104, 106, 115 and 117; rat intestinal fatty acid binding protein in which one amino acid residue may be substituted with cysteine or lysine; optional 6His tag at N terminus; Xaa=any amino acid
B7: BL8P9 C9: SEQ 3 mutein: 18L, 38F, 60F, 73F, 106D, 115R, 117R (protein)
chain: B1 chain with M38F, T106D, E117R
modifications: acrylodan labeled; rat intestinal fatty acid binding protein with substitution of Xaa at one or more of 14, 18, 23, 25, 27, 31, 36, 38, 55, 60, 72, 73, 74, 78, 102, 104, 106, 115 and 117; rat intestinal fatty acid binding protein in which one amino acid residue may be substituted with cysteine or lysine; optional 6His tag at N terminus; Xaa=any amino acid
B8: L1P14 D6: SEQ 3 mutein: 14M 72V 117W (protein)
chain: B1 chain with Y14M, L18M, M38L, F60V, A72V, F73A, T106R, R115Q, E117W
modifications: acrylodan label; rat intestinal fatty acid binding protein with substitution of Xaa at one or more of 14, 18, 23, 25, 27, 31, 36, 38, 55, 60, 72, 73, 74, 78, 102, 104, 106, 115 and 117; rat intestinal fatty acid binding protein in which one amino acid residue may be substituted with cysteine or lysine; optional 6His tag at N terminus; Xaa=any amino acid

Key:
[1] = target: T1, rI-FABP (SEQ ID NO: 3) variant BL22P1B11, MGI-KR14-14R 18L 25C 27A 38V 60R 73F 106L 115R 117D, SEQ ID NO: 35 (Rattus norvegicus, UniProt P02693, A74F/K101R/K126R/K17R/K21R/K28A/K30R/K38R/K47R/K51R/K89R/K8R/K93R/K95R/L39V/L73A/M19L/Q116R/R107L/V26C/V61R/Y118D/Y15R); format: binding
T1 construct: made in house

[2] = format: binding
[3] = Table 6, lysine labeled probes, Primary Fluor Acrylodan
[4] = Table 6, Primary Fluor Acrylodan
[5] = Table 6, Primary Fluor Biotium CF750 SE
[6] = Table 6, Primary Fluor Kodak X-Sight 670 LSS dye
[7] = Table 6, Primary Fluor LiCor IRDye 680 LT
[8] = Table 6, Primary Fluor LiCor IRDye 700DX

T1 sequence (P02693 with tags, fused parts or gaps with the stated changes): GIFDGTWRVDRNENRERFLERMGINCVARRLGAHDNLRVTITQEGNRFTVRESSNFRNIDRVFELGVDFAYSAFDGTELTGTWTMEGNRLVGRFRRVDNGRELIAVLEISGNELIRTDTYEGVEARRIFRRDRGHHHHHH

Molecule | Kd [2, 3] | Is [2, 4] | further results
CC/C=C\C/C=C\C/C=C\CCCCCCCC(=O)O [Linolenate 18:3 (n-3), Linolenate] | – | – | Kd [1]: 3460 nM
B1 | 2310 nM | 0.09 | –
B2 | 35.8 nM | 0.11 | –
B3 | – | – | Is [2, 5]: 0.19; Kd [2, 5]: 9500 nM; Is [2, 6]: 0.61; Kd [2, 6]: 700 nM; Is [2, 7]: 0.67; Kd [2, 7]: 239 nM; Is [2, 8]: 0.14; Kd [2, 8]: 80 nM
B4 | 3220 nM | 0.28 | –
B5 | 1050 nM | 0.29 | –
B6 | 711 nM | 0 | –
B7 | 723 nM | 0.00 | –
B8 | 309 nM | 0.04 | –
